Assay [1] concerns the target T1, HMGB1 (Homo sapiens, UniProt P09429).
T1 sequence (P09429 1-215): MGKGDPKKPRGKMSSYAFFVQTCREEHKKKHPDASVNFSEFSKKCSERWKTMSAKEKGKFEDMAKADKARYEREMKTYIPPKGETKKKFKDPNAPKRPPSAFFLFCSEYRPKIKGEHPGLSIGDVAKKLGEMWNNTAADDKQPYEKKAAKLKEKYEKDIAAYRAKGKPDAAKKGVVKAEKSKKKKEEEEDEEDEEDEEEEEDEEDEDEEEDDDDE
The assay can be described thus: Salt fractionation of nuclei, western blot for HMGB1. The conditions noted are these: for Chromatin association of HMGB1 (retention in high salt fractions): A549 cells, doxycycline-induced expression. Also on record: endogenous in cells; host or cells: A549 (also 293 / 293-Cre in the salt fractionation). Type of assay: cell-based. As for the experimental part: Salt fractionation of nuclei was adapted from established protocols (Zaret, K. (2005) Micrococcal nuclease analysis of chromatin structure. Curr. Protoc. Mol., Biol. Chapter 21, Unit 21.1; Teves et al. (2012) Methods Mol. Biol., 833:421-432). Briefly, 2-4×10^7 cells were collected and resuspended in 2 mL of ice-cold buffer I (0.32 M sucrose, 60 mM KCl, 15 mM NaCl, 5 mM MgCl2, 0.1 mM EGTA, 15 mM Tris, pH 7.5, 0.5 mM DTT, 0.1 mM PMSF and protease inhibitor cocktail from Roche). To dissolve the plasma membrane, 2 mL ice-cold buffer I supplemented with 0.1% IGEPAL were added and samples were incubated on ice for 10 minutes. The 4 mL of nuclei was layered on 8 mL of ice-cold buffer II (1.2 M sucrose, 60 mM KCl, 15 mM NaCl, 5 mM MgCl2, 0.1 mM EGTA, 15 mM Tris, pH 7.5, 0.5 mM DTT, 0.1 mM PMSF and protease inhibitor cocktail from Roche) and centrifuged for 20 minutes at 10,000×g and 4° C. The pelleted nuclei were resuspended in 400 μL buffer III (10 mM Tris pH 7.4, 2 mM MgCl2, 0.1 mM PMSF) supplemented with 5 mM CaCl2 and the DNA was digested to mononucleosomes by addition of 1 unit of MNase (Sigma-Aldrich, N3755). The reaction was incubated at 37° C. for 30 minutes and then stopped by addition of 25 μL of 0.1M EGTA. The samples were centrifuged for 10 minutes, 350×g, at 4° C., and supernatants were set aside for western blot analysis. The pellet was resuspended in 400 μL of buffer IV (70 mM NaCl, 10 mM Tris pH 7.4, 2 mM MgCl2, 2 mM EGTA, 0.1% Triton X-100, 0.1 mM PMSF) with 80 mM salt and rotated for 30 minutes at 4° C. The sample was centrifuged for 10 minutes at 350×g, 4° C., and the supernatant collected for western blot analysis. This step was repeated for salt concentrations in buffer IV of 150 mM, 300 mM and 600 mM. The final pellet was resuspended in 400 μL ddH2O and all samples were analyzed together by western blot. An aliquot of each supernatant was set aside for DNA purification using a PCR purification kit (Qiagen) and analyzed by agarose gel electrophoresis. […]

For assay [2], the target named is T1, HMGB1. The assay can be described thus: GFP immunoprecipitation from A549 cells transfected with protein VII-GFP constructs. The format is cell-based. Also on record: endogenous in cells; host or cells: A549. The conditions noted are these: A549 cells transfected 24 hours. As to the method:
We further narrowed down this binding region through expression of protein VII peptides tagged with GFP. […] Cellular fractionation of A549 cells transfected for 24 hours with GFP and the different protein VII constructs is shown in FIG. 7C.

The subject of a further assay is LPS induced lung injury. The assay can be described thus: Murine model of LPS induced lung injury, BAL fluid analysis. The note with it: 24 hours after LPS exposure, versus mice expressing GFP. Type of assay: in vivo, mouse. As to the method:
All mice were housed in SPF conditions. All studies in mice were carried out in accordance with the recommendations in the Guide for the Care and Use of Laboratory Animals of the National Institutes of Health. C57BL/6J male mice aged 8-10 weeks were used for experiments. Mice were sedated with ketamine and xylazine. Once sedated, mice underwent orotrachial intubation, as described (Das et al. (2013) J. Vis. Exp., (73):e50318), with a 20G angiocatheter from BD (Franklin Lakes, N.J.). Mice subsequently received 5e10 GC of recombinant adenovirus expressing VII-GFP or GFP purified as described above. Four days after infection, mice were exposed to aerosolized LPS, 3 mg/mL for 30 minutes as described (Jeyaseelan et al. (2004) Infect. Immun., 72:7247-7256). One day after LPS exposure, BAL, and lung tissue were harvested as detailed (Nick et al. (2000) J. Immunol., 164:2151-2159) and examined for HMGB1 content (ELISA, Chondrex 6010) and neutrophil count (hematoxylin and eosin stain kit EMD 65044/93). Immunostaining was carried out using standard methods. A minimum of four biological replicates were used for each condition studied. Mice were assigned a random number and color at the start of the experiment and were randomized. Technicians carrying out the experiments were blinded to the identity of the samples. Tissue samples were assigned a random study number such that the technician performing the analysis was blinded. Unblinding for the purpose of data analysis occurred only after all data had been collected.

These results are taken from patent publication US20190276499A1, “Protein VII Fragments and Methods of Use Thereof for the Treatment of Inflammatory Disorders” (priority 2016, published 2019).

B1: protein VII: mature protein VII of human adenovirus type 5 (SEQ ID NO:1), expressed in cells, mostly with C-terminal HA tag (protein)
chain: AKKRSDQHPVRVRGHYRAPWGAHKRGRTGRTTVDDAIDAVVEEARNYTPTPPPVSTVDAAIQTVVRGARRYAKMKRRRRRVARRHRRRPGTAAQRAAAALLNRARRTGRRAAMRAARRLAAGIVTVPPRSRRRAAAAAAAAISAMTQGRRGNVYWVRDSVSGLRVPVRTRPPRN
modifications: C-terminal HA tag; Human adenovirus 5
In the case of B1, the “Retention of HMGB1 in the 600 mM high-salt fraction” value in the assay with HMGB1 [1] (A549 cells transfected 24 hours with GFP-tagged constructs) is “retention of HMGB1”. The “Chromatin association of HMGB1 (retention in high salt fractions)” value with HMGB1 [1] is given as “Increased chromatin association”. The “Chromatin association of HMGB1 (retention in high salt fractions)” value in the assay with HMGB1 [1] (listed as Ad5 protein VII) was “retention in the high salt chromatin fractions”. The “Pull-down of HMGB1 by GFP immunoprecipitation” value with HMGB1 [2] is listed as “able to pull-down HMGB1”. In the assay with LPS induced lung injury, the “HMGB1 in BAL fluid” value is “significantly less HMGB1” and the “Neutrophils in BAL fluid” value is on record as “fewer neutrophils”.
